# Laboratory results published in US20260242419A1, “A CYCLIC PEPTIDE FOR TRAPPING INTERLEUKIN-1 BETA” (Merck Sharp & Dohme LLC, priority 2023, published 2026).
# Starred links: 1 amine or outer side, 2 acyl side, 3 side chain; linkers in the order of their positions; H or OH if unused. Non-standard residues stand in square brackets, D forms with d. dProc3Bn4Pyrim2OMe = (2R,3S)-3-[[4-(2-methoxypyrimidin-5-yl)phenyl]methyl]pyrrolidine-2-carboxylic acid, COc1ncc(-c2ccc(C[C@H]3CCN([*:1])[C@H]3C(=O)[*:2])cc2)cn1; dProc3Bn4Pyrim2NH2 = (2R,3S)-3-[[4-(2-aminopyrimidin-5-yl)phenyl]methyl]pyrrolidine-2-carboxylic acid, Nc1ncc(-c2ccc(C[C@H]3CCN([*:1])[C@H]3C(=O)[*:2])cc2)cn1; dProc3Bn4Pyraz5NH2 = (2R,3S)-3-[[4-(5-aminopyrazin-2-yl)phenyl]methyl]pyrrolidine-2-carboxylic acid, Nc1cnc(-c2ccc(C[C@H]3CCN([*:1])[C@H]3C(=O)[*:2])cc2)cn1; dProc3Bn4Im4NMe = (2R,3S)-3-(4-(1-methyl-1H-imidazol-4-yl)benzyl)pyrrolidine-2-carboxylic acid, Cn1cnc(-c2ccc(C[C@H]3CCN([*:1])[C@H]3C(=O)[*:2])cc2)c1; dProc3Bn4Im2NMe = (2R,3S)-3-(4-(1-methyl-1H-imidazol-2-yl)benzyl)pyrrolidine-2-carboxylic acid, Cn1ccnc1-c1ccc(C[C@H]2CCN([*:1])[C@H]2C(=O)[*:2])cc1; dProc3Bn4Iso3Me = (2R,3S)-3-(4-(3-methylisoxazol-4-yl)benzyl)pyrrolidine-2-carboxylic acid, Cc1nocc1-c1ccc(C[C@H]2CCN([*:1])[C@H]2C(=O)[*:2])cc1; dProc3Bn4Pyrz = (2R,3S)-3-[(4-pyridazin-4-ylphenyl)methyl]pyrrolidine-2-carboxylic acid, O=C([C@H]1[C@@H](Cc2ccc(-c3ccnnc3)cc2)CCN1[*:1])[*:2]; dProc3Bn4Pyr2 = (2R,3S)-3-[[4-(2-pyridyl)phenyl]methyl]pyrrolidine-2-carboxylic acid, O=C([C@H]1[C@@H](Cc2ccc(-c3ccccn3)cc2)CCN1[*:1])[*:2]; dProc3Bn4Pyr3 = (2R,3S)-3-[[4-(3-pyridyl)phenyl]methyl]pyrrolidine-2-carboxylic acid, O=C([C@H]1[C@@H](Cc2ccc(-c3cccnc3)cc2)CCN1[*:1])[*:2]; dProc3Bn4Pyr4 = (2R,3S)-3-[[4-(4-pyridyl)phenyl]methyl]pyrrolidine-2-carboxylic acid, O=C([C@H]1[C@@H](Cc2ccc(-c3ccncc3)cc2)CCN1[*:1])[*:2]; Trp(βS-Me,4-F) = C[C@@H](c1c[nH]c2cccc(F)c12)[C@H](N)C(=O)O; Bip(4'-COOH) = N[C@@H](Cc1ccc(-c2ccc(C(=O)O)cc2)cc1)C(=O)O; dPro(4R-Bzl(4-F)) = O=C(O)[C@H]1C[C@@H](Cc2ccc(F)cc2)CN1; Ala(pyrimidin-5-yl) = N[C@@H](Cc1cncnc1)C(=O)O; Phe(4-COOH) = N[C@@H](Cc1ccc(C(=O)O)cc1)C(=O)O; Pro(cis-4-F) = O=C(O)[C@@H]1C[C@H](F)CN1; 4Pal = N[C@@H](Cc1ccncc1)C(=O)O; Dab = NCC[C@H](N)C(=O)O; Aib = CC(C)(N)C(=O)O
# B1: SEQ ID NO: 59 (peptide)
# peptide: cyclo([Bip(4'-COOH)][4Pal][Phe(4-COOH)]G[Pro(cis-4-F)][Trp(βS-Me,4-F)][Aib]EW[Aib][Ala(pyrimidin-5-yl)]Q[Dab]G[dProc3Bn4Pyrim2NH2])
# SMILES: C[C@@H](c1c[nH]c2cccc(F)c12)[C@@H]1NC(=O)[C@@H]2C[C@H](F)CN2C(=O)CNC(=O)[C@H](Cc2ccc(C(=O)O)cc2)NC(=O)[C@H](Cc2ccncc2)NC(=O)[C@H](Cc2ccc(-c3ccc(C(=O)O)cc3)cc2)NC(=O)[C@H]2[C@@H](Cc3ccc(-c4cnc(N)nc4)cc3)CCN2C(=O)CNC(=O)[C@H](CCN)NC(=O)[C@H](CCC(N)=O)NC(=O)[C@H](Cc2cncnc2)NC(=O)C(C)(C)NC(=O)[C@H](Cc2c[nH]c3ccccc23)NC(=O)[C@H](CCC(=O)O)NC(=O)C(C)(C)NC1=O
# B2: SEQ ID NO: 58 (peptide)
# peptide: cyclo([Bip(4'-COOH)][4Pal][Phe(4-COOH)]G[Pro(cis-4-F)][Trp(βS-Me,4-F)][Aib]EW[Aib][Ala(pyrimidin-5-yl)]Q[Dab]G[dProc3Bn4Pyrz])
# SMILES: C[C@@H](c1c[nH]c2cccc(F)c12)[C@@H]1NC(=O)[C@@H]2C[C@H](F)CN2C(=O)CNC(=O)[C@H](Cc2ccc(C(=O)O)cc2)NC(=O)[C@H](Cc2ccncc2)NC(=O)[C@H](Cc2ccc(-c3ccc(C(=O)O)cc3)cc2)NC(=O)[C@H]2[C@@H](Cc3ccc(-c4ccnnc4)cc3)CCN2C(=O)CNC(=O)[C@H](CCN)NC(=O)[C@H](CCC(N)=O)NC(=O)[C@H](Cc2cncnc2)NC(=O)C(C)(C)NC(=O)[C@H](Cc2c[nH]c3ccccc23)NC(=O)[C@H](CCC(=O)O)NC(=O)C(C)(C)NC1=O
# B3: SEQ ID NO: 64 (peptide)
# peptide: cyclo([Bip(4'-COOH)][4Pal][Phe(4-COOH)]G[Pro(cis-4-F)][Trp(βS-Me,4-F)][Aib]EW[Aib][Ala(pyrimidin-5-yl)]Q[Dab]G[dProc3Bn4Im4NMe])
# SMILES: C[C@@H](c1c[nH]c2cccc(F)c12)[C@@H]1NC(=O)[C@@H]2C[C@H](F)CN2C(=O)CNC(=O)[C@H](Cc2ccc(C(=O)O)cc2)NC(=O)[C@H](Cc2ccncc2)NC(=O)[C@H](Cc2ccc(-c3ccc(C(=O)O)cc3)cc2)NC(=O)[C@H]2[C@@H](Cc3ccc(-c4cn(C)cn4)cc3)CCN2C(=O)CNC(=O)[C@H](CCN)NC(=O)[C@H](CCC(N)=O)NC(=O)[C@H](Cc2cncnc2)NC(=O)C(C)(C)NC(=O)[C@H](Cc2c[nH]c3ccccc23)NC(=O)[C@H](CCC(=O)O)NC(=O)C(C)(C)NC1=O
# B4: SEQ ID NO: 57 (peptide)
# peptide: cyclo([Bip(4'-COOH)][4Pal][Phe(4-COOH)]G[Pro(cis-4-F)][Trp(βS-Me,4-F)][Aib]EW[Aib][Ala(pyrimidin-5-yl)]Q[Dab]G[dProc3Bn4Pyraz5NH2])
# SMILES: C[C@@H](c1c[nH]c2cccc(F)c12)[C@@H]1NC(=O)[C@@H]2C[C@H](F)CN2C(=O)CNC(=O)[C@H](Cc2ccc(C(=O)O)cc2)NC(=O)[C@H](Cc2ccncc2)NC(=O)[C@H](Cc2ccc(-c3ccc(C(=O)O)cc3)cc2)NC(=O)[C@H]2[C@@H](Cc3ccc(-c4cnc(N)cn4)cc3)CCN2C(=O)CNC(=O)[C@H](CCN)NC(=O)[C@H](CCC(N)=O)NC(=O)[C@H](Cc2cncnc2)NC(=O)C(C)(C)NC(=O)[C@H](Cc2c[nH]c3ccccc23)NC(=O)[C@H](CCC(=O)O)NC(=O)C(C)(C)NC1=O
# B5: SEQ ID NO: 55 (peptide)
# peptide: cyclo([Bip(4'-COOH)][4Pal][Phe(4-COOH)]G[Pro(cis-4-F)][Trp(βS-Me,4-F)][Aib]EW[Aib][Ala(pyrimidin-5-yl)]Q[Dab]G[dProc3Bn4Pyr4])
# SMILES: C[C@@H](c1c[nH]c2cccc(F)c12)[C@@H]1NC(=O)[C@@H]2C[C@H](F)CN2C(=O)CNC(=O)[C@H](Cc2ccc(C(=O)O)cc2)NC(=O)[C@H](Cc2ccncc2)NC(=O)[C@H](Cc2ccc(-c3ccc(C(=O)O)cc3)cc2)NC(=O)[C@H]2[C@@H](Cc3ccc(-c4ccncc4)cc3)CCN2C(=O)CNC(=O)[C@H](CCN)NC(=O)[C@H](CCC(N)=O)NC(=O)[C@H](Cc2cncnc2)NC(=O)C(C)(C)NC(=O)[C@H](Cc2c[nH]c3ccccc23)NC(=O)[C@H](CCC(=O)O)NC(=O)C(C)(C)NC1=O
# B6: SEQ ID NO: 60 (peptide)
# peptide: cyclo([Bip(4'-COOH)][4Pal][Phe(4-COOH)]G[Pro(cis-4-F)][Trp(βS-Me,4-F)][Aib]EW[Aib][Ala(pyrimidin-5-yl)]Q[Dab]G[dProc3Bn4Pyrim2OMe])
# SMILES: COc1ncc(-c2ccc(C[C@H]3CCN4C(=O)CNC(=O)[C@H](CCN)NC(=O)[C@H](CCC(N)=O)NC(=O)[C@H](Cc5cncnc5)NC(=O)C(C)(C)NC(=O)[C@H](Cc5c[nH]c6ccccc56)NC(=O)[C@H](CCC(=O)O)NC(=O)C(C)(C)NC(=O)[C@H]([C@@H](C)c5c[nH]c6cccc(F)c56)NC(=O)[C@@H]5C[C@H](F)CN5C(=O)CNC(=O)[C@H](Cc5ccc(C(=O)O)cc5)NC(=O)[C@H](Cc5ccncc5)NC(=O)[C@H](Cc5ccc(-c6ccc(C(=O)O)cc6)cc5)NC(=O)[C@@H]34)cc2)cn1
# B7: SEQ ID NO: 62 (peptide)
# peptide: cyclo([Bip(4'-COOH)][4Pal][Phe(4-COOH)]G[Pro(cis-4-F)][Trp(βS-Me,4-F)][Aib]EW[Aib][Ala(pyrimidin-5-yl)]Q[Dab]G[dProc3Bn4Iso3Me])
# SMILES: Cc1nocc1-c1ccc(C[C@H]2CCN3C(=O)CNC(=O)[C@H](CCN)NC(=O)[C@H](CCC(N)=O)NC(=O)[C@H](Cc4cncnc4)NC(=O)C(C)(C)NC(=O)[C@H](Cc4c[nH]c5ccccc45)NC(=O)[C@H](CCC(=O)O)NC(=O)C(C)(C)NC(=O)[C@H]([C@@H](C)c4c[nH]c5cccc(F)c45)NC(=O)[C@@H]4C[C@H](F)CN4C(=O)CNC(=O)[C@H](Cc4ccc(C(=O)O)cc4)NC(=O)[C@H](Cc4ccncc4)NC(=O)[C@H](Cc4ccc(-c5ccc(C(=O)O)cc5)cc4)NC(=O)[C@@H]23)cc1
# B8: SEQ ID NO: 56 (peptide)
# peptide: cyclo([Bip(4'-COOH)][4Pal][Phe(4-COOH)]G[Pro(cis-4-F)][Trp(βS-Me,4-F)][Aib]EW[Aib][Ala(pyrimidin-5-yl)]Q[Dab]G[dProc3Bn4Pyr3])
# SMILES: C[C@@H](c1c[nH]c2cccc(F)c12)[C@@H]1NC(=O)[C@@H]2C[C@H](F)CN2C(=O)CNC(=O)[C@H](Cc2ccc(C(=O)O)cc2)NC(=O)[C@H](Cc2ccncc2)NC(=O)[C@H](Cc2ccc(-c3ccc(C(=O)O)cc3)cc2)NC(=O)[C@H]2[C@@H](Cc3ccc(-c4cccnc4)cc3)CCN2C(=O)CNC(=O)[C@H](CCN)NC(=O)[C@H](CCC(N)=O)NC(=O)[C@H](Cc2cncnc2)NC(=O)C(C)(C)NC(=O)[C@H](Cc2c[nH]c3ccccc23)NC(=O)[C@H](CCC(=O)O)NC(=O)C(C)(C)NC1=O
# B9: SEQ ID NO: 6 (peptide)
# peptide: cyclo([Bip(4'-COOH)][4Pal][Phe(4-COOH)]G[Pro(cis-4-F)][Trp(βS-Me,4-F)][Aib]AW[Aib][Ala(pyrimidin-5-yl)]Q[Dab]G[dPro(4R-Bzl(4-F))])
# SMILES: C[C@@H]1NC(=O)C(C)(C)NC(=O)[C@H]([C@@H](C)c2c[nH]c3cccc(F)c23)NC(=O)[C@@H]2C[C@H](F)CN2C(=O)CNC(=O)[C@H](Cc2ccc(C(=O)O)cc2)NC(=O)[C@H](Cc2ccncc2)NC(=O)[C@H](Cc2ccc(-c3ccc(C(=O)O)cc3)cc2)NC(=O)[C@H]2C[C@@H](Cc3ccc(F)cc3)CN2C(=O)CNC(=O)[C@H](CCN)NC(=O)[C@H](CCC(N)=O)NC(=O)[C@H](Cc2cncnc2)NC(=O)C(C)(C)NC(=O)[C@H](Cc2c[nH]c3ccccc23)NC1=O
# B10: SEQ ID NO: 63 (peptide)
# peptide: cyclo([Bip(4'-COOH)][4Pal][Phe(4-COOH)]G[Pro(cis-4-F)][Trp(βS-Me,4-F)][Aib]EW[Aib][Ala(pyrimidin-5-yl)]Q[Dab]G[dProc3Bn4Im2NMe])
# SMILES: C[C@@H](c1c[nH]c2cccc(F)c12)[C@@H]1NC(=O)[C@@H]2C[C@H](F)CN2C(=O)CNC(=O)[C@H](Cc2ccc(C(=O)O)cc2)NC(=O)[C@H](Cc2ccncc2)NC(=O)[C@H](Cc2ccc(-c3ccc(C(=O)O)cc3)cc2)NC(=O)[C@H]2[C@@H](Cc3ccc(-c4nccn4C)cc3)CCN2C(=O)CNC(=O)[C@H](CCN)NC(=O)[C@H](CCC(N)=O)NC(=O)[C@H](Cc2cncnc2)NC(=O)C(C)(C)NC(=O)[C@H](Cc2c[nH]c3ccccc23)NC(=O)[C@H](CCC(=O)O)NC(=O)C(C)(C)NC1=O
# B11: SEQ ID NO: 61 (peptide)
# peptide: cyclo([Bip(4'-COOH)][4Pal][Phe(4-COOH)]G[Pro(cis-4-F)][Trp(βS-Me,4-F)][Aib]EW[Aib][Ala(pyrimidin-5-yl)]Q[Dab]G[dProc3Bn4Pyr2])
# SMILES: C[C@@H](c1c[nH]c2cccc(F)c12)[C@@H]1NC(=O)[C@@H]2C[C@H](F)CN2C(=O)CNC(=O)[C@H](Cc2ccc(C(=O)O)cc2)NC(=O)[C@H](Cc2ccncc2)NC(=O)[C@H](Cc2ccc(-c3ccc(C(=O)O)cc3)cc2)NC(=O)[C@H]2[C@@H](Cc3ccc(-c4ccccn4)cc3)CCN2C(=O)CNC(=O)[C@H](CCN)NC(=O)[C@H](CCC(N)=O)NC(=O)[C@H](Cc2cncnc2)NC(=O)C(C)(C)NC(=O)[C@H](Cc2c[nH]c3ccccc23)NC(=O)[C@H](CCC(=O)O)NC(=O)C(C)(C)NC1=O
# Molecular target: Recombinant human IL-1β (BioLegend 579404) (human, UniProt P01584 117-269)
# Experiment: cell-based or functional assay
row,Binder,MRC5 IC50 [nM]
1,B1,0.018
2,B2,0.037
3,B3,0.014
4,B4,0.019
5,B5,0.024
6,B6,0.018
7,B7,0.021
8,B8,0.022
9,B9,0.057
10,B10,0.018
11,B11,0.022
